Here are results for 1 molecule from article PMC2865556 (Integrative biology : quantitative biosciences from nano to …, 2009).

This test addresses full-length t-SNARE heterodimer (syntaxin 1A and SNAP-25) (UniProt P32851 1-288; P60879 1-206). The test is described as follows: AFM single-molecule force spectroscopy.

Chain of full-length t-SNARE heterodimer (syntaxin 1A and SNAP-25) (P32851 whole entry, chain 1 of 2): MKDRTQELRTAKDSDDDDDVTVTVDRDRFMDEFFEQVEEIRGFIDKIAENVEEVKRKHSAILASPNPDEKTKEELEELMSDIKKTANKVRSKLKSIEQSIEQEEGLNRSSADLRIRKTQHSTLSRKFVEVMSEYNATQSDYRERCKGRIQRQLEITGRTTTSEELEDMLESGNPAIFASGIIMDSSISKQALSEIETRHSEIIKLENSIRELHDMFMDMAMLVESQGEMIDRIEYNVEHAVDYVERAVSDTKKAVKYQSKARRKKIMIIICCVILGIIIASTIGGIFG
Chain of full-length t-SNARE heterodimer (syntaxin 1A and SNAP-25) (P60879 whole entry, chain 2 of 2): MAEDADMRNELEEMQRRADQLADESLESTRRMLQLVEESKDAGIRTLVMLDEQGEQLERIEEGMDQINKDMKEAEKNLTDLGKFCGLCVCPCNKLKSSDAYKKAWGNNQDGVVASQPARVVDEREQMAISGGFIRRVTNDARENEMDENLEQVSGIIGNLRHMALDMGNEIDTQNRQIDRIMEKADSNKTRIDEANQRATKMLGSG

Turning to FETSAAKLKRKYWWKNLKMMIILGVICAIILIIIIVYFST (domain or fragment) [VAMP 2 in v-SNARE bilayers after cleavage by BoNT/B (remaining membrane-anchored portion)], the “dissociation rate of the inner barrier (kβ1^o)” value amounted to 20.1 s⁻¹ and the “dissociation rate of the outer barrier (kβ2^o)” value is 0.46 s⁻¹.
